Patent US20190367619A1 (ARGENX, published 2019)
Changes are numbered by the printed parent chain.

T1: recombinant human galectin-10, TEV-cleaved (human, UniProt Q05315 1-142)
T1 sequence: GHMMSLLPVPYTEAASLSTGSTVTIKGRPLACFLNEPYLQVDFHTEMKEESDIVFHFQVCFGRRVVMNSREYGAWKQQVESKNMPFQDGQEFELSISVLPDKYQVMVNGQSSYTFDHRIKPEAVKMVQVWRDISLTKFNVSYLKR

T2: human galectin-10-His (human)
T2 construct: The last M of the tag may be Met1 of galectin-10; also called humanGal10-His; hGal10
T2 chain: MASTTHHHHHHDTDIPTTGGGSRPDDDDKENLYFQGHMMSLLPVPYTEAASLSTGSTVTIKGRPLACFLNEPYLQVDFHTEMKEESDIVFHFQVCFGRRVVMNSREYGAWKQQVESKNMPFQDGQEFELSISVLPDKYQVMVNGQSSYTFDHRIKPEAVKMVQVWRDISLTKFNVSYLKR

T3: cynomolgus galectin-10-His, YRT isoform (cynomolgus)
T3 construct: also called cynoGal10-YRT; not shown: His tag
T3 chain: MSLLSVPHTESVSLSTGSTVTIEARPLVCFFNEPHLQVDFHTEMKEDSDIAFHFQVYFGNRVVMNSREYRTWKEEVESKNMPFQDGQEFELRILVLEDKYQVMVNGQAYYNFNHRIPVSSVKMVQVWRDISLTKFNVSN

T4: human galectin-10-His (recombinant human galectin-10 with TEV-cleavable N-terminal His-tag) (human)
T4 construct: SEC-MALLS: dimer in solution; also called Gal10-His; humanGal10-His
T4 chain: T2 chain

T5: TEV-cleaved wild-type recombinant human galectin-10 (soluble, in Fab complexes, or as recombinant galectin-10 … (human, UniProt Q05315 1-142))
T5 sequence: T1 sequence

B1: 11F12 mouse IgG1 (antibody, V domains shown)
VH: QVQLQESGGGLVQPGGSLRLSCAASGFTFSTNYMNWVRQAPGKGLEWVSGITSGGGRTYYADSVKGRFTISRDNAKNTLYLQMNSLKPEDTALYYCARTDHAWLDAWGQGTLVTVSS
VL: HSAVTQPPSVSGTLGKTVTISCAGTSSDVGYGNYVSWYQHLPGTAPKLLIYAVSTRASGVPDRFSGSKSGNTASLTISGLQSEDEGDYYCASYSVRNNVVFGGGTRLTVL
notes: VH and VL cloned in frame with mouse IgG1 constant domains; also called 11F12 mIgG1
B2: 2F09 mouse IgG1 (antibody, V domains shown)
VH: QVQVQESGPGLVKPSQTLSLTCTVSGGSITTNYFYWSWIRQSPGKGLEWIGAIAYSGRTYYSPSLKSRTSISRDTSNNQFTLQLSSVTPEDTAVYYCARGPKGLASYYDYWGQGTQVTVSS
VL: SSALTQPSAVSVSLGQTARITCQGGNFGYYYVSWYQQKPGQAPVLVIYRDSGRPSGIPERFSGSSSGDTATLTISGAQAEDEADYYCQSGSSSDNTVFGGGTHLTVL
notes: VH on mouse IgG1 heavy chain constant domains (CH1-CH2-CH3), VL on mouse lambda light chain constant domain; also called 2F09 mIgG1
B3: 6A05 mouse IgG1 (antibody, V domains shown)
VH: EVQLVESGGGLVQPGGSLRLSCAASGFTFSSYAMSWVRQAPGKGLEWVSAINSGGGWTSYVDSVKGRFTISRDNAKNTLYLQMDSLKPEDTAVYYCTKYSGPELNTQYGMDYWGKGTLVTVSS
VL: B2 VL with S1N, S2F, A3M, Y29S, V32A
notes: also called 6A05 mIgG1
B4: 10A06 mouse IgG1 (antibody, V domains shown)
VH: QVQLVESGGGLVQPGGSLRLSCAASGFTFGNYDMSWVRQAPGKGPEWVSDINSGGGSTYYADSVKGRFTISRDNAKNSLLLQMNSLKPEDTAVYYCATGYTGYYYWGQGTQVTVSS
VL: QTVVTQEPSLSVSPGGTVTLTCGLSSGSVTSSNYPAWYQQTPGQAPRALIYSINSRHSGVPDRFSGSISGNKAALTITGAQAEDEADYYCTLYMGTGSNNVVFGGGTHLTVL
notes: VH and VL cloned in frame with mouse IgG1 constant domains; also called 10A06 mIgG1

Legend:
[1] = target: T1, recombinant human galectin-10, …; assay: cell-based or functional assay
[2] = target: T2, human galectin-10-His; assay: SPR Biacore T3000, mouse IgG1 captured
Procedure: The binding capacity of the mouse IgG1 antibody panel to galectin-10 was analysed on Biacore T3000. For this purpose, a capture approach was used, where a fixed concentration (1.5 μg/mL) of the mouse IgG1 clone was captured by polyclonal anti-mouse Fc antibodies immobilized on CM5 Chip to reach a binding signal around 150 RU. Then a serial dilution of human and cynomolgus WGS isoform of galectin-10-His (serial dilution, 1 over 2 from 5 μg/mL) diluted in HBS-EP pH7.4 was injected. Raw data were analysed via BIA evaluation software with a blank subtraction. The kd/KD and Rmax of each mAbs to galectin-10-His was determined using the Fit Kinetics simultaneous ka/kd/Binding with mass transfer/Local Rmax on BIA evaluation software.

[3] = target: T1, recombinant human galectin-10, …; assay: cell-based or functional assay; remark: listed apart in the source
[4] = target: T3, cynomolgus galectin-10-His, YRT isoform; assay: ELISA, coated antigen 0.5 ug/mL
Procedure: (§1) In a similar setup to that used during the characterization of the scFv-human Fc molecules, the relative binding properties of the 7 mouse IgG1 antibodies were analyzed by ELISA. A Maxisorp plate was coated overnight with 0.5 μg/mL of human or cynomolgus WGS or YRT isoform of galectin-10-His. Then a serial dilution of each clone (from 100 nM, dilution 1/4, 12 points of dilutions) was incubated on coated galectin-10. After several washing steps, detection of the bound mouse IgG1 was carried out with an anti-mouse Fc-HRP antibody (DAMPO, Jackson ImmunoResearch, Catalog 715-035-150). Absorbance was measured at 450 nm (reference at 620 nm) with Tecan instrument. The raw data (OD values) were plotted on GraphPad Prism 7.01. The EC50 values for each antibody, calculated with a non-linear regression (log(agonist) vs. response Variable slope (four parameters)), are shown in the table below. Antibody 1D11 from the previous panel was included for comparison.

[5] = target: T2, human galectin-10-His; assay: ELISA, coated antigen 0.5 ug/mL
Procedure: as §1

[6] = target: T4, human galectin-10-His (recombinant …); assay: BLI tandem on galectin-10-His; competitor: saturating 2C07 mIgG1 (10 ug/mL)
Procedure: (§2) In order to identify the galectin-10 binding sites of the different clones, an epitope mapping method (TANDEM), using the BLI technology, was established. Briefly, the galectin-10-His was captured on anti-HIS 1K sensor tips, before incubation with an excess of one antibody (called the “saturating” antibody) then directly transferred to a solution containing the “competitor” antibody at a suboptimal concentration. If the “saturating” and the competitor antibody bind to the same binding sites, no binding of “competitor” will be detected (expressed in nm shift).

[7] = target: T4, human galectin-10-His (recombinant …); assay: BLI tandem on galectin-10-His; competitor: saturating 1C09 mIgG1 (10 ug/mL)
Procedure: as §2

[8] = target: T4, human galectin-10-His (recombinant …); assay: BLI tandem on galectin-10-His; competitor: saturating 1D11 mIgG1 (10 ug/mL)
Procedure: as §2

[9] = target: T4, human galectin-10-His (recombinant …); assay: SPR Biacore T3000, mouse IgG1 captured by anti-mouse Fc, galectin-10-His as analyte
Procedure: The binding capacity of the mouse IgG1 antibodies to galectin-10 was analyzed on Biacore T3000. For this purpose, a capture approach was set up. A CM5 Chip was coated with polyclonal anti-mouse Fc at 8000 RU, then a fixed concentration of the mouse IgG1 antibody panel (1.5 μg/mL), diluted in HBS-EP pH7.4, was captured to reach a binding signal around 150 RU. Finally, a serial dilution of galectin-10-His (serial dilution, 1 over 2 from 5 μg/mL) diluted in HBS-EP pH7.4 was injected. Raw data were analyzed via BIA evaluation software with a blank subtraction (4-3). The kd/KD and Rmax of each mAb to galectin-10-His was determined using the Fit Kinetics simultaneous ka/kd/Binding with mass transfer/Local Rmax on BIA evaluation software.

[10] = target: T4, human galectin-10-His (recombinant …); assay: BLI tandem on galectin-10-His; competitor: saturating 6F06 mIgG1 (10 ug/mL)
Procedure: as §2

[11] = target: T4, human galectin-10-His (recombinant …); assay: BLI tandem on galectin-10-His; competitor: saturating 4E08 mIgG1 (10 ug/mL)
Procedure: as §2

[12] = target: T4, human galectin-10-His (recombinant …); assay: BLI tandem on galectin-10-His; competitor: saturating 6A08 mIgG1 (10 ug/mL)
Procedure: as §2

[13] = target: T4, human galectin-10-His (recombinant …); assay: ELISA, mouse IgG1 on coated galectin-10-His (0.2 ug/mL)
Procedure: In a similar setup to that used during the characterization of the scFv-human Fc molecules, the relative binding affinities of the 10 mouse IgG1 antibodies were analyzed by ELISA. A Maxisorp plate was coated overnight with 0.2 μg/mL of galectin-10-His. Then a serial dilution of each clone (from 100 nM, dilution 1/4, 12 points of dilutions) was incubated on coated galectin-10. After several washing steps, detection of the bound mouse IgG1 was carried out with an anti-mouse Fc-HRP antibody. Absorbance was measured at 450 nm (reference at 620 nm) with Tecan instrument. A mouse IgG1 isotype control was used as negative control. A polyclonal anti-galectin-10 antibody was used as positive control for the coating of galectin-10. The raw data (OD values) were plotted on GraphPad Prism 7.01. The EC50 values for each antibody, calculated with a non-linear regression (log(agonist) vs. response Variable slope (four parameters)), are reported in Table 7 below.

[14] = target: T5, TEV-cleaved wild-type recombinant human …; assay: cell-based or functional assay
[15] = target: T4, human galectin-10-His (recombinant …); assay: BLI tandem on galectin-10-His; competitor: saturating 2F09 mIgG1 (10 ug/mL)
Procedure: as §2

[16] = target: T4, human galectin-10-His (recombinant …); assay: BLI tandem on galectin-10-His; competitor: saturating 6E10 mIgG1 (10 ug/mL)
Procedure: as §2

[17] = target: T4, human galectin-10-His (recombinant …); assay: BLI tandem on galectin-10-His; isotype control as saturating antibody (10 ug/mL)
Procedure: as §2

[18] = target: T4, human galectin-10-His (recombinant …); assay: BLI tandem on galectin-10-His; competitor: saturating 6B06 mIgG1 (10 ug/mL)
Procedure: as §2

[19] = target: T4, human galectin-10-His (recombinant …); assay: BLI tandem on galectin-10-His; competitor: saturating 6A05 mIgG1 (10 ug/mL)
Procedure: as §2

| Binder | 50% dissolution (min) of CLCs, antibody 50 uM [1] [min] | 90% dissolution (min) of CLCs, antibody 50 uM [1] [min] | Kd [2] [nM] | koff [2] [s⁻¹] | kon [2] [M⁻¹ s⁻¹] | 50% crystal dissolution (min), 50 uM [3] [min] | 90% crystal dissolution (min), 50 uM [3] [min] | EC50 [4] [nM] | OD values [4] [OD] | EC50 [5] [nM] | OD values [5] [OD] | binding signal (nm) [6] [nm] | binding signal (nm) [7] [nm] | binding signal (nm) [8] [nm] | Kd [9] [nM] | koff [9] [s⁻¹] | binding signal (nm) [10] [nm] | binding signal (nm) [11] [nm] | binding signal (nm) [12] [nm] | Bmax [13] [OD] | further results |
| --- | --- | --- | --- | --- | --- | --- | --- | --- | --- | --- | --- | --- | --- | --- | --- | --- | --- | --- | --- | --- | --- |
| B1 | 21.3 | 42.6 | 0.7 | 0.00224 | 3.04e+06 | 65.4 | > 120 | 0.21 | 3.35 | 4.83 | 2.7 | – | – | – | – | – | – | – | – | – | – |
| B2 | – | – | – | – | – | – | – | – | – | – | – | 0.05 | 0.04 | 0.12 | 0.3 | 0.00034 | 0.06 | 0.1 | 0.07 | 3.29 | EC50 [13]: 0.05 nM; 100% Solubilization of CLC (Conc uM) [14]: 10.7 µM; binding signal (nm) [15]: 0.03 nm; binding signal (nm) [16]: 0.03 nm; binding signal (nm) [17]: 1.14 nm; binding signal (nm) [18]: 0.03 nm; binding signal (nm) [19]: 0.12 nm |
| B3 | – | – | – | – | – | – | – | – | – | – | – | 0.01 | 0 | 0.04 | 0.6 | 0.00483 | 0.02 | -0.03 | 0 | 1.74 | EC50 [13]: 0.07 nM; 100% Solubilization of CLC (Conc uM) [14]: 10.1 µM; binding signal (nm) [15]: 0.01 nm; binding signal (nm) [16]: -0.03 nm; binding signal (nm) [17]: 1.02 nm; binding signal (nm) [18]: 0 nm; binding signal (nm) [19]: 0.05 nm |
| B4 | 44.5 | 86.6 | 0.9 | 0.0101 | 1.17e+07 | > 120 | > 120 | 0.06 | 3.38 | 0.63 | 0.3 | – | – | – | – | – | – | – | – | – | – |
